In the nanobody polyreactivity screen of Harvey et al. (2022):

Assay: yeast display, Sf9 membrane polyspecificity reagent, FACS + sequencing; frameworks hold sequencing errors
In short: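 Nanobodies came from a synthetic yeast display library in Saccharomyces cerevisiae BJ5465, induced with galactose for 36–48 hours and stained for 1 hour at 4 °C with 10% biotinylated, detergent-solubilized Sf9 membrane reagent. Cells were enriched on streptavidin microbeads and then FACS-sorted, with low and high (top ~1%) gates set on anti-HA fluorescence for expression and streptavidin fluorescence for reagent binding. Each polyreactivity label reflects the gate a clone came from. Genes were amplified by colony PCR, sequenced by MiSeq 2 × 250 and filtered by CDR length.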

Sequence | polyreactivity (PSR sort gate)
QVQHVESGGGLVQAGGSLRLSCAASGSIFHVNAMGWYRQAPGKERELVAAISSSGGRTYYADSVKGRFTISRDNAKNTVYLQMNSLKPEDTAVYYCAAASQVRQPPNGGNGYWGQGTQVTVSS | high polyreactivity
QVQHVESGGGLVQAGGSLRLSCAASGSIFNLYVMGWYRQAPGKERELVATISSGGSTNYADSVKGRFTISRDNAKNTVYLQMNSLKPEDTAVYYCAKPYIVYYSMDYWGQGTQVTVSS | low polyreactivity
QVQHVESGGGLVQAGGSLRLSCAASGSIFRYNARGWYRQAPGKERELVAAISSSGGRTYYADSVKGRFTISRDNAKNTVYLQMNSLKPEDTAVYYCATADTRRFTYGYYYWGQGTQVTVSS | high polyreactivity
QVQHVESGGGLVQAGGSLRLSCAASGSIFSVYAMGWYRPEPGKASQLFAGITRGGSTYADSVKGRFTISRDNAKNTVYLQMNSLKPEDTAVYYCAADALIATPSWGKYNYWVQGTQVTVSS | high polyreactivity
QVQHVESGGGLVQAGGSLRLSCAASGSIFVRNAMGWYRQAPGKEREFVAAISRSGDSTNYADSVKGRFTISRDNAKNTVYLQMNSLKPEETAVYYCAVGYRYLKWVDYWGQGTQVTVSS | high polyreactivity
QVQHVESGGGLVQAGGSLRLSCAASGSIFWVYVMGRYIQAPGQERELVAAITNGGSTDYADSVKGRFTISRDNAKNTVYLQMNSLKPEDTAFYYCAKRSTIWGRILITFDYWGQGTQVTVSS | low polyreactivity
QVQHVESGGGLVQAGGSLRLSCAASGSIIDIYAMGWYRQAPGKERELVASISGGAGSTNYADSVKGRFTISRDNAKNSVYLQMNSLKPEDTGVDDFAAVVYVPVYFQHKFDVEYEYWGQGTQVTVSS | low polyreactivity
QVQHVESGGGLVQAGGSLRLSCAASGSIIPSNVMGWYRQTPGKDRELVAAISNTGSTNYADSVKGRFTISRDNAKNSVYLQMNSLKPEDTAVYYCNADASYGFWSLLDYDYWGQGTQVTVSS | low polyreactivity
QVQHVESGGGLVQAGGSLRLSCAASGSILGWYAMGWYRQAPGKERELDAAITTAGDSTYYADSVKGRFTISRDNAKNTVYLPLNSLKPEDTAVYYCATRYQVRRGSGPSYDYWGQGTQVTVSS | high polyreactivity
QVQHVESGGGLVQAGGSLRLSCAASGSILRSYAMGWFRQAPGKERELVAVINGSGGRTYYADSVKGRFTISRDNEKNTVYLQMISLKPEDTAVYYCNADPGGRYPRRGYAHEGDYWGQGTQVTVSS | low polyreactivity
QVQHVESGGGLVQAGGSLRLSCAASGSILYLYAMGWYRQAPGKERELVAAISLGDGSTYYADSVKGRFTISRDNAKNTVYLQMNSLKPEDTAVYYCNADRYTYWQDYNYWGQGTQVTVSS | low polyreactivity
QVQHVESGGGLVQAGGSLRLSCAASGSIYISNAMGWYRQAPGKERELVAAITSSGGSTYDADSVKGRFTISRDNAKNTVSLQMNSLKPEDTAVYYCAARPGRNYYYWGQGTQVTVSS | high polyreactivity
QVQHVESGGGLVQAGGSLRLSCAASGSTFGRNAMGWYRQAPGKERELVAAINWSDGSTHYADSVKGRFTISRDNAKNTVYLQMNSLKPEDTAVYYCGADAWSWPVDYNYWGQGTQVTVSS | low polyreactivity
QVQHVESGGGLVQAGGSLRLSCAASGSTFGWYAMGWYRQAPGKERELVAAITRRGTRTYYADSVKGRFTISRDNAKNTVYLQMNSLKPEDTAVYYCNARGFPGKFGYWGQGTQVTVSS | high polyreactivity
QVQHVESGGGLVQAGGSLRLSCAASGSTFPANAMGRYRQAPVKERELVAVISSGGRTYYADSVKGRFTISRDNAKNTVYLQLNSLKPEDTEVYYCAAGSYAGSGPSPWLEYWGQGTQVTVSS | high polyreactivity
QVQHVESGGGLVQAGGSLRLSCAASGSTFRPYAMGWYRQAPGKERELVARITVSGDSTYYADSVKGRFTISRDNAKNTVYLQMNSLKPEDTAVYYCAREFDYSLSGFDYWGQGTQVTVSS | low polyreactivity
QVQHVESGGGLVQAGGSLRLSCAASGSTFTAYAMGWYRQAPGKVSELVAVITSGGGTYYADSVKVRFTISRDNANNTDYLQMNSLKPEDTAVYYCHSARTYAGTYIYRYGYWGQGTQVTVSS | high polyreactivity
QVQHVESGGGLVQAGGSLRLSCAASGSTFTYNAMGWYRQAPGKEREKVASISSGTTTYYADSVKGRFTISRDNAKNTVYLQMNSLKPEDTAVYYCAVDSWSRVQGWLAHNYDYWGQGTLVTVSS | low polyreactivity
QVQHVESGGGLVQAGGSLRLSCAASGSTFVQYAMGWYRQAPGKERELVAAIRGRGDSTYYADSVKGRFTISRDNAKNTVYLQMNSLKPEDTAVYYCAARGQGSRGMYYWGQGTQVTVSS | low polyreactivity
QVQHVESGGGLVQAGGSLRLSCAASGSYLRYYAMGWYRQAPGKERELVAAISRSGTNTYYADSVKGRFTFSPDNAKNSVYLQMNSVKPEVTAVYYCAARGYYRDYDSWGQGTQVTVSS | high polyreactivity
QVQHVESGGGLVQAGGSLRLSCAASGYIFPGSAMGWYRPAPGKERELVAAISTSGGYTYYADSVKGRFTISRDNAKNTVYFQMNSLNPEVTAVYYCAADRYSTDPYAKGTEFYYWGQGTQVTVSS | low polyreactivity
